Reference: patent publication US20260317426 (published 2026)

Legend:
[1] = target: T1, MICA ECD (alleles *001, *002, *004, *008) (human, UniProt Q29983); assay: BLI, monovalent, lowest of MICA alleles
T1 chain: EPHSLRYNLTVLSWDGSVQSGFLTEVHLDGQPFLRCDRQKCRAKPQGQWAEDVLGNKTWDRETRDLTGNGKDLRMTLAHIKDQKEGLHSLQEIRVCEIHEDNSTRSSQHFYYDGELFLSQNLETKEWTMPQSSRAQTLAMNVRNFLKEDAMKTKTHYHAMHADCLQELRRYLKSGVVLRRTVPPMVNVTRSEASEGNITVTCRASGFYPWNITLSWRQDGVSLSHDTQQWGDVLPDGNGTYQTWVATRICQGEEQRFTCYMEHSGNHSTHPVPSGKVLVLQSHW

MICB*004 ECD = target: T2, MICB*004 ECD (human, UniProt Q29980); assay: BLI, monovalent
T2 chain: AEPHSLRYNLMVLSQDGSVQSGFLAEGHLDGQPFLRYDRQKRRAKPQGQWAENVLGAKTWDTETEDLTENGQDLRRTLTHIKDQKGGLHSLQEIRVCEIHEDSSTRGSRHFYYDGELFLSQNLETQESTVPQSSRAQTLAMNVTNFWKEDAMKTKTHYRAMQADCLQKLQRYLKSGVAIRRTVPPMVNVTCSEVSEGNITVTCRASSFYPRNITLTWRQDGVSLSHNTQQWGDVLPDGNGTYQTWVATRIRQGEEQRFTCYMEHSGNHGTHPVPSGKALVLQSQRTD

B1: CLN-619 (3F9H1L3L) (antibody, V domains shown)
VH: QVQLVESGGGLVKPGGSLRLSCAASGFTFSNYAMSWIRQAPGKGLEWVSYISPGGDYIYYADSVKGRFTISRDNAKNSLYLQMNSLRAEDTAVYYCTTDRRHYGSYAMDYWGQGTLVTVSS
VL: DIVMTQSPLSLPVTPGEPASISCRSSKSLLHSNLNTYLYWFLQKPGQSPQILIYRMSNLASGVPDRFSGSGSGTAFTLKISRVEAEDVGVYYCMQHLEYPFTFGPGTKLEIKR
Work on B1 yielded a Kd [1] of 0.77 nM and a Kd (MICB*004 ECD) of 11.4 nM.
